Measured values from the domain aggregation screens of Martell et al. (2025).

Assay: soluble fraction after stress (log2 fold change); higher = more stays soluble; pooled small domains, quantitative proteomics
Conditions: stress: pH 4
Summary of the method: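 How much of each domain stays soluble after acid stress, expressed as a fold change, is used to gauge aggregation propensity. Pooled custom libraries of small domains underwent pH 4 stress before high-throughput quantitative proteomics. A higher log2 value means more of the domain stayed soluble.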

Sequence | soluble fraction (log2)
HMEVAAAENYRSKLSSFAKDTISVWQTELLLGTISDDDKASLTEWMAYIKALQVVDTSDPESITWPTEPT | -1.12
HMEVAASEQRDNLWALARRVLSGEQYDVLYLRYVEDFSVAQIADVVGKTQTHVKVLLFRGRNNLGSRLRS | -0.0684
HMEVENAQLLARLTPQEHRVFERVVAGLSNREIGSEMDISIKTVEVHRARVMRKLEANSVAELVRFHIHN | -0.811
HMEVGDTYLGKVTRVSSFGAFIEVLPGKEGLMRQNDAGEGGMPEVGDEVMVRVMEVDHLGRINLSGKLDD | -1.32
HMEVGKRIAEIRKENRMSQEQFGQLFHVTRQTVSNWENAKSYPDLQTLVKISELFEITMDELLK | -0.454
HMEVKVSGHLEAIGGVYHMKLSWIDDAGKRRRKSKSTGLAERGNKKRANDMLIDFMREQEAEIAASGD | ≥ 0.43
HMEVLSKRGSTGTEVINIQKKLKNWGYYTGSVDGIYGKLTEEAVRYFQRTNGLTVDGIAGKNTLAAMGIA | 0.399
HMEVNLEPLIALLRKHRDLDLSGYSKSTLGRRITYFMGLNKISSIDELGRRLAEDDLLFQEFLDKLT | -0.818
HMEVSLEDKMDYLTNYATTHKNFSFRNLLESSSGKIEVIVTFLAILELMKMGRINISQEHIFDDIIIESRI | -1.8
HMEVSTRQVRAALRDIIEAEDKKRPLSDEAITARLREQGLPVARRTVAKYREQMGILAARLRK | 0.0717
HMEVVRVEPGATVRDLGEALGVPPTRIIQILMGLGEMKTVTQTLSTEEIELVAEELGRRVEV | -0.248
HMEWVVVPDVRRQLLPEAQRRVNKARLRLEVAGGWPAEPLLAMVVDQKPGPETRVPLNSIVVVVVRNLP | -0.0893
HMEYELYALKEEVLKRLTREDRELLILLFEERRTIHAVAQRLGLSDSAVYKRRTQLVNKVKVIASMLM | -0.592
HMEYKNYYDSPVGRLELLSDGVSLTAVLFENQQGDGTREENTSLAIFKEATQWLDAYFKGDNPEITIPL | 0.33
HMEYKTGIINTNKVRVRNAADADATVIFAINKDIKVKILAEENGFYKIGVSVKNRGNGEDLIGFVKKELIT | 0.3
HMEYQTVEKSEAEQIIQELEKAERLALKVYSKNDIITGISVSDGKSYYFSAELVPMLKNIIENPEIKIL | -1.14
HMEYRVRDKMTDILELLTEHRGRIALRDAFPTGTREELLAAFLALLELTKMQTVIVYQDRLYDDIQIVMK | 0.22
HMEYSTLEIYSQTKKDLIEKSPHLNKVVYDKDDGYIYLLSFEKEDDLTSFKSNIENDSDIKRIEANV | -0.91
HMEYTVNRLAQISGVSKRTLRYYDEIGLLRPERVNPNGYRIYGQMQVDLLQQILFYRELGLPLEEIREII | -0.639
HMFAATGVVNAPSGLVLRETASKGGNPLATVPDKAQVEIVEEDGEWYKVKVNEQTGYLFAEFVNKTE | -0.13
HMFAQDQLFKKDNSKVDVKILEINTTEIKYKLFTYQDGPTITVAKKDVALIIYQNGVHEVIT | -1.17
HMFAVPAPEVDDILSEKKVDVLLLGPQVRYLLEQFTEKLKDKNIPIGVIPMVDYGMMNGSKVLALAEELIG | -0.288
HMFDFGNHLRMLREKHGISQEELGRRVGRAGSVISNYENNIKIPTLDVLTTMARIYDVSLDYLVG | -1.06
HMFDFNNLSSLSDVELSVYRFVVNNPEKVAYMRVRDIAQKTHVANSSVMRFVHKIGFASFPEFKAYLKNIN | -0.0916
HMFDITKEVLKQSGLYNLYKNDESLEGINRIQNIEELLNGIKDFVENNEKSQASVSSFLQDVALATDQ | -0.217

Sequence | soluble fraction (log2)
HMFDKVSVNNLAEAIGRLDGIYQDVLRLYYVHELPSKEIGKILNINHLTVNTRLKRAREKLFKMLKEE | -0.812
HMFDNPLSERDKEILNHISMGKSNKEIANQVGLAEQTIKNTISVILDKTFTSNRAQAASMATKNKW | -0.0659
HMFDPTDLPEKQLMVYEIIKSNNGINMTNIASLLGFNKTTVDNAIRALKKKEIVVFKGTNRSGGYFNT | 0.193
HMFEDEYLETMYAFYETDPQALVRTGDLASSLKVSPASATEMVQRLASKGFVDYIPYKGASLTELGLAM | -0.438
HMFEDYLRMKGLSIVSFSKQTGIPISTLRNLNKIRYDKWKIRYLEELSNVLNKTIQEIIEELKNMG | -1.32
HMFEFFKGIYSISLLKKDGIFFVTFKDENKEAVKHIFPEKPTALELGIKVMEMFEYKERYDGII | -0.226
HMFEPLTDREREVLQALADGLSDKEIAERLYISPATVRTHITAILGKLDANSRLQAVVVAARHNLVTL | -0.926
HMFERISELLTDEELAVYKRGRNANASSVPKHADIADYRRATGVEALFGYLYIKGEIDRINQLFELA | -0.635
HMFESQYIGKIATAITDISAFSGRLKIYDENWEARTLGEDAPEIKKGAKVKIVRHDDLTMFVEKK | 0.087
HMFETLVLALAQAWPAERGPVEALQFEGGRLSLQRSGFADEQVEALRQRLSSEGWTLQTEQGRLILNKAG | -1.11
HMFFDSDTDIQNALNAENSIKKYQLFRTQTLYNSAQSDIDFVNQPEVKAKLFDALENLKNKLGFLAEPT | -0.4
HMFGIEIPEEAGKLQDYTLTDDDLEGGNTLKEIQFPQGARVVIIRRDDKFIIPDGSVELQSGDQLLIIYGE | -1.81
HMFGSKDVKRAIEDYAAAMSSQPRALSAPQRKVLIRHLATSGLLQLRGAAKIVADELGISRASVYNALKV | 0.193
HMFHDPTMEETLINLKGITNEVLSLLSSSKIKKLEDLAEMSVPELRDIVENISDEEASALIMEARKPWF | -1.81
HMFHGEGVQANNIQAYIVLKMAAVNGAEDALDTADEVSEKMSREDLETATQVLGQIFRKYLMELQSA | -1.12
HMFIKVEVPDLTGMTLTEVRKALEEKNLKMGDIRPAGQTSLVAKVINQSPQAKMVVDEYSEVSIQFEE | 0.166
HMFIMQTVALGSEGPDVRALQSILNRIGYNAGTVDGIFGSRTRQAVIAFQRNNGLAADGVAGPATWG | -0.0509
HMFINITAITGNNYNTPDAARNALPNTYNKKIGLVFTYRDLTNRYRVYLYNSETSNYIPLDSYM | -1.28
HMFIPGDSVRVHVKVVEGSNERIQMFEGVVIARQGSGVRENFTVRRISYGVGIERTFPVHSPRL | -0.62
HMFISVDGLIHMGRTHLVILGGVEFARGDMIPETGEVVKSIGADSVVLELPDTGMRRTLNFV | -1.91
HMFKINNIIVSGLSEKSNLQTSEEIKNILFENIFFIKKDVLFKILEKNNLINSFEIKKIYPDTIEVKIKKT | -0.104
HMFKITNTLNKTAEVYLTIPENKKGKGKIMISVNGAFHELEAMTENDKIQSGAVVKVVRIENDNILIVET | -1.96
HMFKMRVNGKEVIGMAITAKPQANPIDVADEIKKFVIDANTKLPSTMKLEVLYDATGIFRASISEVIS | -0.86
HMFLDKDTLNQLYRFGIALTGNEQDSQDVLHTAIERFLRNKPQQINQQAAYIRTIMRNYWYDELRKLKTQ | -0.0981
HMFLPETEVKSFFHRGITKISPSLAMDIADFFRMPFAVILKRALALEVISDEQYRSFMTVKPEHV | -0.0531

Sequence | soluble fraction (log2)
HMFLSQQDINRANAASVTDMGDIIRRTFERNAAEINGLELSDAEKKDAVKQMATLATTALKTAAGAVNPY | 0.152
HMFLSSEERRERIIEVLRQQDEVTVVELSHRLGVSEVTTRKDLQQLEEQGYLTRVRGGAVVSGRGQL | -0.458
HMFMNFAEHLMALRKQRGWSQEELGSQIGVTRQTVSKWEMGQSTPELEKLVELSRLFGMSIDQLVGL | -0.00635
HMFNISEKLKKYRNALGLTQTEVAEKIEITKPTYASYEKGKDISIGTLKKLADLFEVSFESFFSE | -0.336
HMFNLFPHLSVLRNITLAPQKVKGLNRSESNEIAMSLLERVGIPEQSDKFPSQLSGGQQQRVAIARALAM | 0.22
HMFPELSEEEQIIVSLLQKQPDGLQINTLVVESNIPVNRMSGILFELEMKGIIRMAAGGVYRLL | -0.785
HMFQEGLVAPPAYTRPESFRGWEVPEILRSGNFPAIAKWQHEESLRLTRERRPAMLEAYERRT | -0.415
HMFQNYTDAVVVASKTFFYNMPDESTRKSAYLIQGDRIMVEKSQRNFVYVTFTNEASGRTTTGWLKSDDLE | -0.00722
HMFSDDEINRLKARDSILVNLRDSEKQVWELYTDGKTVQNIANQLNKHKQSISATIINIKNKISRKQNMLK | -0.0225
HMFSGVQLGQAISEAIKRKNVSQKEVADHFGVKQPSVSGWIKNGRIDKKHLDKLIDYFSDVVTPSHFGIE | 0.241
HMFSQDQIFLRSGEKIDARVIEVTPEFIKYKSKANPEGPLYSKKITDVLLITYANGTTEVYE | -0.749
HMFTDAEIKQFAAAAVEVTKIQQDSTISAADKQPKMLAVVQSSGLPPEKFNQIGQAAAADPALQQRIQA | 0.159
HMFTEPQKLVKRILNMLGHRYDDASIQARSDFQASNNYHKVQVKKKRESMEEYTAWLEEMYDAYRIN | 0.0985
HMFTFEDMDKFESLLTTGLTDVQRRIYSLVTHDGKEYDLIAETLGISVEAVRMHMSRARKKIRENYKKID | -1.7
HMFTIGENIRDLRLERAITQEQLAEQLNVSAPAVSKWERGEAYPDITLVPKLAEILGVSTDKLFGVD | -0.265
HMFTKYSPDFKLSVILDMRKNNLGYGEVVRKYWNLDSYKESDRHRSQVRLWERIFLEEGVEGFM | -1.77
HMFTLDDLQATYDIFERAEQNSDAMLAFQKVITAEGLDFDLTSPQGIVDFFKGAAPTEIYDLYEAS | -0.956
HMFTNSTSSRQLTNSDDTLRLNISSQTRQMLPNGQPFGGSLSGKLLLVIYGATTRSIPAQTTPEKIVV | 0.105
HMFTSVDVAPDLRTAKVFYSVLGRKKSDKEINIAINQKRKAFKKFMGPELHLKNIPDLHFYYD | 0.115
HMFTYDLSERELTIIELVAKGLNNKELADTLFLSEGTIRNYLSTLLNKLDLRDRTQLAIFYYQHL | -2.93
HMFVEEGSLKKITFDTYEFNITDNLKSLRVTYQGLLPNLFREGQGVVIEGILLEQNYIQANTVF | -0.328
HMFVTGTTIKKLREEKRMTQGELAQMIGVSDKAVSKWETGRGLPDISLLEPLSRALGISVAELFAGQH | -0.0399
HMFWEGYLAARREQFLKDQQVLLGNEFRSNPDFWLEVASKEWAVVEERLSTGADVSEEVQETMGLDF | -1.5
HMFYNSSDNAYKILEINKSATVDEIKAAYRKMAKKYHPDKVIHLGQEHQKGAEEKFRQVQEAYEELQKERG | 0.297
HMGAAVEVISLRYRSAAELLPIVRSLLSTEGKISADERTNSLIIVDSDEAVARVIHSLATLDT | -0.851
